Source: patent US10526371B2, “Hydrogel-forming peptides” (Universiteit Gent, priority 2015, dated 2020)
Numbered stars: 1 amine (or outer) side, 2 acyl side, 3 side chain; on linkers, the order of the positions; unused ones are H or OH. Square brackets hold non-standard residues; d marks the D form. β3hCha = beta-3-homo-cyclohexylalanine, O=C(C[C@H](CC1CCCCC1)N[*:1])[*:2]; β3hF = N[C@H](CC(=O)O)Cc1ccccc1

Experiment: Peptide self-assembly / gelation conditions
Format: physicochemical
Protocol: Peptide self-assembly was analyzed in i) a PBS solution (10 mM), ii) a PBS/mQ mixture (1:1 v:v, mQ water with a resistivity of […]) or iii) a NaCl aqueous solution (150 mM). The TFA salt of reference peptide SEQ NO. 23 (1 mg) was dissolved in 50 μl mQ water, followed by the addition of 50 μl PBS solution. This mixture was left to rest overnight, resulting in a 1% w/v hydrogel. The TFA salt of mixed α/β-peptides SEQ ID NO 1 and SEQ ID NO 2 (2 mg) was dissolved in mQ (100 μL) and PBS/mQ mixture (100 μL), respectively. […] The TFA salt of mixed α/β-peptide SEQ ID NO 3 (3 mg) was dissolved in PBS (100 μL) to probe gelation. All self-assembled gels were analyzed by circular dichroism (CD) and Fourier transform infrared (FT-IR) spectroscopy, as well as cryogenic transmission electron microscopy (Cryo-TEM).
(SEQ ID NO:22 (=10-mer)), 100 μl mQ water was added to 2 mg of TFA-salt of pure peptide, then vortexed and sonicated. As a result, a transparent self-supporting gel was formed immediately. A gelation condition of 2 w/v % in mQ water was found.
for H-Fβ^2hFEFQFK-NH2 (SEQ ID NO:19), 100 μl of PBS was added to 2 mg of TFA-salt of pure peptide, then vortexed and sonicated. After overnight resting, a self-supporting gel was formed. A gelation condition of 2 w/v % in PBS was determined.

Substance | Gelation condition % (w/v) (in mQ) | Gelation condition % (w/v) (in PBS) | other results
H-Glu-β^3hPhe-Phe-Lys-β^3hPhe-Phe-NH2 (H-E[β3hF]FK[β3hF]F-NH2; SMILES NCCCC[C@H](NC(=O)[C@H](Cc1ccccc1)NC(=O)C[C@H](Cc1ccccc1)NC(=O)[C@@H](N)CCC(=O)O)C(=O)N[C@H](CC(=O)N[C@@H](Cc1ccccc1)C(N)=O)Cc1ccccc1) [SEQ ID NO 12] | – | – | Gelation condition % (w/v) (in mQ/PBS 1:0.5): 1.5% (mQ/PBS 1:0.5) % (w/v)
H-Phe-Gln-β^3hPhe-Phe-Gln-β^3hPhe-Phe-Lys-OH (H-FQ[β3hF]FQ[β3hF]FK-OH; SMILES NCCCC[C@H](NC(=O)[C@H](Cc1ccccc1)NC(=O)C[C@H](Cc1ccccc1)NC(=O)[C@H](CCC(N)=O)NC(=O)[C@H](Cc1ccccc1)NC(=O)C[C@H](Cc1ccccc1)NC(=O)[C@H](CCC(N)=O)NC(=O)[C@@H](N)Cc1ccccc1)C(=O)O) [SEQ ID NO 5] | 2% (mQ) % (w/v) | – | –
H-Phe-Gln-β^3hPhe-Phe-Lys-NH2 (H-FQ[β3hF]FK-NH2; SMILES NCCCC[C@H](NC(=O)[C@H](Cc1ccccc1)NC(=O)C[C@H](Cc1ccccc1)NC(=O)[C@H](CCC(N)=O)NC(=O)[C@@H](N)Cc1ccccc1)C(N)=O) [SEQ ID NO 9] | – | 3% (PBS) % (w/v) | –
H-Phe-Glu-Phe-Gln-Phe-Lys-β^3hPhe-Phe-NH2 (H-FEFQFK[β3hF]F-NH2; SMILES NCCCC[C@H](NC(=O)[C@H](Cc1ccccc1)NC(=O)[C@H](CCC(N)=O)NC(=O)[C@H](Cc1ccccc1)NC(=O)[C@H](CCC(=O)O)NC(=O)[C@@H](N)Cc1ccccc1)C(=O)N[C@H](CC(=O)N[C@@H](Cc1ccccc1)C(N)=O)Cc1ccccc1) [SEQ ID NO 21] | – | – | Gelation condition % (w/v) (in mQ/PBS 1:1): 1.5% (mQ/PBS 1:1) % (w/v)
H-Phe-Glu-Phe-Gln-β^3hPhe-Phe-Lys-NH2 (H-FEFQ[β3hF]FK-NH2; SMILES NCCCC[C@H](NC(=O)[C@H](Cc1ccccc1)NC(=O)C[C@H](Cc1ccccc1)NC(=O)[C@H](CCC(N)=O)NC(=O)[C@H](Cc1ccccc1)NC(=O)[C@H](CCC(=O)O)NC(=O)[C@@H](N)Cc1ccccc1)C(N)=O) [SEQ ID NO 18] | – | 2% (PBS) % (w/v) | –
H-Phe-Glu-β^3Phe-Tyr-Gln-β^3hPhe-Tyr-Lys-OH (H-FE[β3hF]YQ[β3hF]YK-OH) [SEQ ID NO 4] | – | 2% (PBS) % (w/v) | –
H-Phe-Glu-β^3hCha-Phe-Gln-β^3hCha-Phe-Lys-OH (H-FE[β3hCha]FQ[β3hCha]FK-OH) [SEQ ID NO 8] | 3% (mQ) % (w/v) | – | –
H-Phe-Glu-β^3hPhe-Phe-Gln-Phe-Gln-β^3hPhe-Phe-Lys-NH2 (H-FE[β3hF]FQFQ[β3hF]FK-NH2; SMILES NCCCC[C@H](NC(=O)[C@H](Cc1ccccc1)NC(=O)C[C@H](Cc1ccccc1)NC(=O)[C@H](CCC(N)=O)NC(=O)[C@H](Cc1ccccc1)NC(=O)[C@H](CCC(N)=O)NC(=O)[C@H](Cc1ccccc1)NC(=O)C[C@H](Cc1ccccc1)NC(=O)[C@H](CCC(=O)O)NC(=O)[C@@H](N)Cc1ccccc1)C(N)=O) [SEQ ID NO 22] | 2% (mQ) % (w/v) | – | time of gelation (self-supporting gel formed) (TFA salt, at its own gelation condition): immediately; gelation condition (TFA salt, in mQ water): 2 w/v %
H-Phe-Glu-β^3hPhe-Phe-Gln-Phe-Lys-NH2 (H-FE[β3hF]FQFK-NH2; SMILES NCCCC[C@H](NC(=O)[C@H](Cc1ccccc1)NC(=O)[C@H](CCC(N)=O)NC(=O)[C@H](Cc1ccccc1)NC(=O)C[C@H](Cc1ccccc1)NC(=O)[C@H](CCC(=O)O)NC(=O)[C@@H](N)Cc1ccccc1)C(N)=O) [SEQ ID NO 13] | – | 2% (PBS) % (w/v) | –
H-Phe-Glu-β^3hPhe-Phe-Gln-Phe-Lys-Phe-NH2 (H-FE[β3hF]FQFKF-NH2; SMILES NCCCC[C@H](NC(=O)[C@H](Cc1ccccc1)NC(=O)[C@H](CCC(N)=O)NC(=O)[C@H](Cc1ccccc1)NC(=O)C[C@H](Cc1ccccc1)NC(=O)[C@H](CCC(=O)O)NC(=O)[C@@H](N)Cc1ccccc1)C(=O)N[C@@H](Cc1ccccc1)C(N)=O) [SEQ ID NO 20] | – | – | Gelation condition % (w/v) (in mQ/PBS 1:1): 1.5% (mQ/PBS 1:1) % (w/v)
